Experimental findings from US20090191228A1 are described below.

The target of test [1] is dH5-0 (recombinant hemagglutinin 5 of H5N1 strain A/Vietnam/1203/04, stock as supplied by Protein Sciences) (influenza virus H5N1 strain A/Vietnam/1203/04). The test is described as follows: ELISA, immobilized H5 forms, Fn F4-5 in solution; normalized to cdH5-0. (An ELISA detects its analyte on a solid surface through an enzyme-linked reagent.)
Test [2] has the same target.

In the case of “fourth and fifth finger domain of fibronectin (Fn F4-5) (from UniProt P02751 183-275)”, the Normalized affinity, kD (%) in test [1] amounted to 103%.

As usually defined, the Kd is a measure of binding affinity in units of concentration. Regarding “tissue type plasminogen activator (tPA) (from UniProt P00750 36-562) (enzyme)”, in test [2], the Bmax came to 0.32 and the Kd stood at 96 nM.
